The source of these data is paper PMC4646322 (The Journal of Biological Chemistry, 2015).

Series [1] deals with the molecule itself. As to the kind of experiment: SEC-MALS; SEC-MALLS, Superdex75 10/300, 50 mM Tris pH 7.5, 150 mM NaCl; samples loaded at 20, 200 or 500 μM.
Series [2] concerns the molecule itself. As to the kind of experiment: AUC; sedimentation equilibrium, 20 and 200 μM TolR(36–142), 15,000-35,000 rpm, 20 h at each speed, 50 mM Tris pH 7.5, 150 mM NaCl, 20 °C, interference optics; self-association model.

B1: E. coli TolR(60–133), truncated TolR (domain or fragment, Escherichia coli K12)
chain: GAMDNPPVIVEVSGIGQYTVVVEKDRLERLPPEQVVAEVSSRFKANPKTVFLIGGAKDVPYDEIIKALNLLHSAGVK
notes: three residues left at the N terminus after cleavage by tobacco etch virus protease; TolR, Escherichia coli K12, residues 60-133 (N- and C-terminal strand-swapped regions deleted); expected mass 8314.6 Da; Dimer that dissociates already at 200 μM; also called TolR24; source: E. coli BL21 DE3, purified (HisTrap, TEV cleavage, Superdex75); not shown: His6, N-terminal, cleaved
As for B1, in series [1], the binding result is recorded as “binds”.

B2: E. coli TolR(64–142) (domain or fragment, Escherichia coli K12)
chain: GAMVIVEVSGIGQYTVVVEKDRLERLPPEQVVAEVSSRFKANPKTVFLIGGAKDVPYDEIIKALNLLHSAGVKSVGLMTQPI
notes: three residues left at the N terminus after cleavage by tobacco etch virus protease; expected mass 8818.3 Da; Dimer that dissociates on dilution; source: E. coli BL21 DE3, purified (HisTrap, TEV cleavage, Superdex75); not shown: His6, N-terminal, cleaved
As to B2, the binding result in series [1] is reported as “binds”.

B3: E. coli TolR(36–133) (domain or fragment, Escherichia coli K12)
chain: GAMAPIITQSVEVDLPDATESQAVSSNDNPPVIVEVSGIGQYTVVVEKDRLERLPPEQVVAEVSSRFKANPKTVFLIGGAKDVPYDEIIKALNLLHSAGVK
notes: three residues left at the N terminus after cleavage by tobacco etch virus protease; TolR, Escherichia coli K12, residues 36-133 (9 C-terminal residues deleted); expected mass 10,768.2 Da; Dimer that dissociates on dilution; essentially monomeric at low micromolar concentrations; source: E. coli BL21 DE3, purified (HisTrap, TEV cleavage, Superdex75); not shown: His6, N-terminal, cleaved
B3: in series [1], the binding result is listed as “binds”.

B4: E. coli TolR(36–142), intact periplasmic domain of TolR (domain or fragment, Escherichia coli K12)
chain: GAMAPIITQSVEVDLPDATESQAVSSNDNPPVIVEVSGIGQYTVVVEKDRLERLPPEQVVAEVSSRFKANPKTVFLIGGAKDVPYDEIIKALNLLHSAGVKSVGLMTQPI
notes: three residues left at the N terminus after cleavage by tobacco etch virus protease; expected mass of the monomer 11,695.4 Da; Vector pETM-11; also called TolR21; source: E. coli BL21 DE3, purified (HisTrap, TEV cleavage, Superdex75); not shown: His6, N-terminal, cleaved
Regarding B4, the “stoichiometry N” value in series [2] stood at 2.

One may read the stoichiometry N as the number of molecules, sites or subunits per partner or assembly.
